The Human Domainome abundance scans (Beltran et al. 2025)
± gives the uncertainty stated by the source.

B1: Bromodomain adjacent to zinc finger domain protein 2B, residues 1927 to 1982; numbered along this chain, Q9UIF8 (parent)
chain: KSIMKVYCQICRKGDNEELLLLCDGCDKGCHTYCHRPKITTIPDGDWFCPACIAKA

Variants of: B1
Test: abundance fitness (aPCA) (normalised: wild type 0, dead -1); higher = more abundant; growth selection in yeast, the domain comes from the species named
Settings: Homo sapiens
In the case of KSIMKVYCQICRKGDNEELLLHCDGCDKGCHTYCHRPKITTIPDGDWFCPACIAKA, the abundance fitness is reported as -0.039 ± 0.17. With KSIMKVYCQICRKGDNEELLLSCDGCDKGCHTYCHRPKITTIPDGDWFCPACIAKA the abundance fitness was 0.01 ± 0.085. In the case of KSIMKVYCQTCRKGDNEELLLLCDGCDKGCHTYCHRPKITTIPDGDWFCPACIAKA, the abundance fitness is reported as -0.01 ± 0.13. KSIMKVYCQICRKGDNEELLLLCDGCDKGCHTYCHRPKITTIPDGDWFCPACICKA showed an abundance fitness of -0.095 ± 0.15. Work on KSIMKVYCQICRKGDNEELLLLCDGCDKGCHTYCHRPKITTIPDGDWFCPACIRKA yielded an abundance fitness of -0.211 ± 0.073. In the case of KSIMKVYCQICRKGDNEELLLLCDGCDKGCHTYCHRPKITTIPDGDWFCPACITKA, the abundance fitness is reported as -0.031 ± 0.1. For KSIMKVYCQICRKGDNEELLLLCDGCDKGCHTYCHRPKITTIPDGDWFCPACIWKA, the abundance fitness was -0.229 ± 0.1. Work on KSIMKVYCQICRKGDNEELLLLCDGCDKGCHTYCHRPKITTIPDGDWFCPACIFKA yielded an abundance fitness of -0.093 ± 0.14. Variant KSIMKVYCQICRKGDNEELLLLCDGCDKGCHTYCHRPKSTTIPDGDWFCPACIAKA has an abundance fitness of -0.087 ± 0.081. Variant KSIMKVYCQICRKGDNEELLLLCDGCDKGCHTYCHRPKETTIPDGDWFCPACIAKA has an abundance fitness of 0.04 ± 0.099. For KSIMKVYCQICRKGDNEELLLLCDGCDKGCHTYCHRPKQTTIPDGDWFCPACIAKA, the abundance fitness was -0.059 ± 0.095. In the case of KSIMKVYCQICRKGDNEELPLLCDGCDKGCHTYCHRPKITTIPDGDWFCPACIAKA, the abundance fitness is reported as -0.421 ± 0.094. With KSIMKVYCQICRKGDNEELRLLCDGCDKGCHTYCHRPKITTIPDGDWFCPACIAKA the abundance fitness was -0.318 ± 0.093. In the case of KSIMKVYCQICRKGDNEELLLLCDGCDKGCHSYCHRPKITTIPDGDWFCPACIAKA, the abundance fitness is reported as 0.052 ± 0.091. KSIMKGYCQICRKGDNEELLLLCDGCDKGCHTYCHRPKITTIPDGDWFCPACIAKA showed an abundance fitness of -0.045 ± 0.072. KSIMKAYCQICRKGDNEELLLLCDGCDKGCHTYCHRPKITTIPDGDWFCPACIAKA gave an abundance fitness of -0.132 ± 0.1. With KSIMKIYCQICRKGDNEELLLLCDGCDKGCHTYCHRPKITTIPDGDWFCPACIAKA the abundance fitness was -0.068 ± 0.13. With KSIMKVYCQICRKGQNEELLLLCDGCDKGCHTYCHRPKITTIPDGDWFCPACIAKA the abundance fitness was -0.238 ± 0.16. For KSIMKVYCQICRKGCNEELLLLCDGCDKGCHTYCHRPKITTIPDGDWFCPACIAKA, the abundance fitness was -0.122 ± 0.12. With KSIMKVYCQICRKGPNEELLLLCDGCDKGCHTYCHRPKITTIPDGDWFCPACIAKA the abundance fitness was -0.293 ± 0.12. With KSIMKVYCQICRKGDNEELLLLCDGCDKGCHTYCHRPKITTIPDGDWKCPACIAKA the abundance fitness was 0.085 ± 0.14. KSIMKVYCQICRKGDNEELLLLCDGCDKGCHTYCHRPKITTIPDGDWWCPACIAKA showed an abundance fitness of -0.07 ± 0.098. With KSIMKVYCQICRKGDNEELLLLCDGCDKGCHTYCHRPKITTIPDGDWNCPACIAKA the abundance fitness was 0.192 ± 0.15. For KSIMKVYCQICRKGDNEELLLLCDGCDKGIHTYCHRPKITTIPDGDWFCPACIAKA, the abundance fitness was 0.15 ± 0.14. Work on KSIMKVYCQICRKGDNEELLLLCDGCDKGCHTYCHTPKITTIPDGDWFCPACIAKA yielded an abundance fitness of 0.078 ± 0.11. With KSIMKVYCQICRKGDNEELLLLCDGCDKGCHTYCHYPKITTIPDGDWFCPACIAKA the abundance fitness was -0.252 ± 0.12. Work on KSIMKVYCQICRKGDNEELLLLCDGIDKGCHTYCHRPKITTIPDGDWFCPACIAKA yielded an abundance fitness of -0.673 ± 0.4. For KSIMKVYCQICRKGDNEELLLLCDGHDKGCHTYCHRPKITTIPDGDWFCPACIAKA, the abundance fitness was -1.04 ± 0.27. KSIMKVYCQICRKGDNEELLLLCDGCDKGCHTYCDRPKITTIPDGDWFCPACIAKA showed an abundance fitness of 0.001 ± 0.14. For KSIMKVYCQICRKGDNEELLLLCDGCDKGCHTYCYRPKITTIPDGDWFCPACIAKA, the abundance fitness was -0.201 ± 0.1. Work on KSIMKVYCQICRKGDNEELLLLCDGCDKGCHTYCFRPKITTIPDGDWFCPACIAKA yielded an abundance fitness of -0.109 ± 0.11. KSIMKVYCQICRKGDNEELLLLCDGCDPGCHTYCHRPKITTIPDGDWFCPACIAKA gave an abundance fitness of -0.755 ± 0.15. In the case of KSIMKVYDQICRKGDNEELLLLCDGCDKGCHTYCHRPKITTIPDGDWFCPACIAKA, the abundance fitness is reported as -1 ± 0.16. KSIMKVYTQICRKGDNEELLLLCDGCDKGCHTYCHRPKITTIPDGDWFCPACIAKA showed an abundance fitness of -0.902 ± 0.19. KSIMKVYWQICRKGDNEELLLLCDGCDKGCHTYCHRPKITTIPDGDWFCPACIAKA gave an abundance fitness of -1.17 ± 0.12. In the case of KSIMKVRCQICRKGDNEELLLLCDGCDKGCHTYCHRPKITTIPDGDWFCPACIAKA, the abundance fitness is reported as -0.152 ± 0.065. KSIMKVLCQICRKGDNEELLLLCDGCDKGCHTYCHRPKITTIPDGDWFCPACIAKA gave an abundance fitness of -0.14 ± 0.083. In the case of KSIMKVYCQICRKGDNEELLLLCDGCDKGCHTYCHRPKITTIPDGDWFCPACVAKA, the abundance fitness is reported as -0.004 ± 0.07. KSIMKVYCQICRKGDNEELLLLCDGCDKGCHTYCHRPKITTIPDGDWFCPACCAKA gave an abundance fitness of -0.051 ± 0.12. Variant KSIMKVYCQICRKGDNEELLLLCDGCDKGCHTYCHRPKITTIPDGDWFCPACLAKA has an abundance fitness of 0.043 ± 0.088. KSIMKVYCQICRKKDNEELLLLCDGCDKGCHTYCHRPKITTIPDGDWFCPACIAKA gave an abundance fitness of -0.063 ± 0.14. In the case of KSIMKVYCQICRKQDNEELLLLCDGCDKGCHTYCHRPKITTIPDGDWFCPACIAKA, the abundance fitness is reported as -0.003 ± 0.13. Work on KSIMKVYCQICRKSDNEELLLLCDGCDKGCHTYCHRPKITTIPDGDWFCPACIAKA yielded an abundance fitness of 0.032 ± 0.092. KKIMKVYCQICRKGDNEELLLLCDGCDKGCHTYCHRPKITTIPDGDWFCPACIAKA gave an abundance fitness of -0.1 ± 0.14. Work on KSIMKVYCQICRKGDNEELLLLCDGCDKGCHTYCHRPKITTIYDGDWFCPACIAKA yielded an abundance fitness of -0.263 ± 0.19. For CSIMKVYCQICRKGDNEELLLLCDGCDKGCHTYCHRPKITTIPDGDWFCPACIAKA, the abundance fitness was -0.279 ± 0.19. In the case of KSIMKVYCQICRKGDNEELLLLCDGCDKGCHTYCHRSKITTIPDGDWFCPACIAKA, the abundance fitness is reported as -0.202 ± 0.081.
